Assay [1] concerns the target recombinant core spidroin eADF4(C16) (Araneus diadematus (engineered mimic of its fibroin 4 core domain)). The assay is described as follows: turbidity at 340 nm (fibrillization kinetics), global fit with AmyloFit; 10-40 uM eADF4(C16) in 150 mM NaF, 20 C, without and with 0.5% (w/w) pre-formed seeds; secondary nucleation model, nc set to 2 and n2 to 1; monomers to fibrils.

For assay [2] the target is unchanged. The assay is described as follows: turbidity at 340 nm (fibrillization kinetics), global fit with AmyloFit; 10-40 uM eADF4(C16) in 150 mM Na2SO4, 20 C, without and with 0.5% (w/w) pre-formed seeds; secondary nucleation model, nc set to 2 and n2 to 1; monomers to fibrils.

On to recombinant core spidroin eADF4(C16), for which, in assay [1], the k2 (rate constant of secondary nucleation) turned out to be 0.598 M⁻¹ s⁻¹; the k+ (rate constant of fibril elongation) was 7.26e+07 M⁻¹ s⁻¹; the k+k2 (elongation x secondary nucleation, combined rate parameter) is 3.34e+07 M^−2 s^−2; the k+kn (elongation x primary nucleation, combined rate parameter) is 420000 M^−2 s^−2. Besides, the kn (rate constant of primary nucleation) in assay [1] turned out to be 0.00585 M⁻¹ s⁻¹. Also, in assay [2], the k2 (rate constant of secondary nucleation) is 7.08 M⁻¹ s⁻¹; the k+ (rate constant of fibril elongation) amounted to 2.85e+07 M⁻¹ s⁻¹; the k+k2 (elongation x secondary nucleation, combined rate parameter) turned out to be 9.04e+07 M^−2 s^−2; the k+kn (elongation x primary nucleation, combined rate parameter) was 1.35e+06 M^−2 s^−2. In assay [2], the kn (rate constant of primary nucleation) amounted to 1.42 M⁻¹ s⁻¹.

(Values after article PMC10661072.)
